The text below walks through data of paper PMC4068289.

This test deals with human amyloid β 1–40 carrying the A2V mutation (Aβ_(1–40A2V)) (human). Put plainly: far-Western, overlay or dot blot.

“human amyloid β 1–40 carrying the A2V mutation (Aβ_(1–40A2V)) (peptide)” returned a fold increase in the proportion of A11-stained oligomers against WT of 3 fold.
